Measurements taken from paper PMC10229650 (Nature Communications, 2023).

Target: T1, recombinant, soluble murine Jagged1 (mouse, UniProt Q9QXX0)
T1 construct: Jagged1, mouse, recombinant soluble form; also called recombinant mouse Jagged1
Assay: ELISA; plates coated with 500 ng/mL recombinant soluble murine Jagged1 in PBS; antibodies titrated 2000-15.63 ng/mL in PBSTM, 1.5 h at RT; detected with ALP-conjugated goat anti-murine Fc
Details: both partners purified

T1 sequence (Q9QXX0 34-1067): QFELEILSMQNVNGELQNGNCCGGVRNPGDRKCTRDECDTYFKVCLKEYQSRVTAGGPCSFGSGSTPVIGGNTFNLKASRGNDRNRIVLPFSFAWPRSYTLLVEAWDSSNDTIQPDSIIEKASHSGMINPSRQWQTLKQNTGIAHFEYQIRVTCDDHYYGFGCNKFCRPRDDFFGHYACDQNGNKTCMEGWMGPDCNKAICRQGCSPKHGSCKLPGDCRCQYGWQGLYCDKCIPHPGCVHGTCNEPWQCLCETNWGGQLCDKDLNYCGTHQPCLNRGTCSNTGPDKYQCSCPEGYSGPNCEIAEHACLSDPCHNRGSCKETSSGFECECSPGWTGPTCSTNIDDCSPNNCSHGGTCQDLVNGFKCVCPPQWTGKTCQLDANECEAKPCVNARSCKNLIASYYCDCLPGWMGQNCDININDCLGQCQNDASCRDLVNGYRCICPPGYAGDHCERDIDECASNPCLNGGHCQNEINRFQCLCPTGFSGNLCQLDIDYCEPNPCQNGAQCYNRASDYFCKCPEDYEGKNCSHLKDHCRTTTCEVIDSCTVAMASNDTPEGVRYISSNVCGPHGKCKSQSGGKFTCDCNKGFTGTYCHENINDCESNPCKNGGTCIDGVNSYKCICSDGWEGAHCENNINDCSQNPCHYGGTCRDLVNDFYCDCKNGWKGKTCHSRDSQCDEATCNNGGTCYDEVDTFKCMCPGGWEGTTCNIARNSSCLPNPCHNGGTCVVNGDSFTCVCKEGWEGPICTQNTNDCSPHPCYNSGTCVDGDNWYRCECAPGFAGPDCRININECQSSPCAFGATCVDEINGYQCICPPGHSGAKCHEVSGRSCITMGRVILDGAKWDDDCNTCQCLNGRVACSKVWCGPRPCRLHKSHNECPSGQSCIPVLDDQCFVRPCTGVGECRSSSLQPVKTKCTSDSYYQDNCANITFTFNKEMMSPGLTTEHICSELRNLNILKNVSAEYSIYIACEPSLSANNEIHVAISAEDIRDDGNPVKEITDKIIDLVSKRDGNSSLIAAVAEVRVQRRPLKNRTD

Binder | binding result
anti-JAG1.b70 mouse immunoglobulin G2a (mIgG2a), WT (antibody, V domains shown, variable heavy domain of anti-JAG1.b70; constant domains of the mouse IgG2a heavy chain, wild type; variable light domain of anti-JAG1.b70; constant domain of the murine kappa light chain; Phage-display selected antibody in mIgG2a format; A batch provided by Genentech was used in animals; WT and PGLALA variants for the ELISAs were produced in HEK293E; The constant domains of the Fab in PDB 5BO1 …) VH: EVQLVESGGGLVQPGGSLRLSCAASGFTFSNYGIHWVRQAPGKGLEWVGWITPDGGYTDYADSVKGRFTISADTSKNTAYLQMNSLRAEDTAVYYCARAGTLFAYWGQGTLVTVSS VL: DIQMTQSPSSLSASVGDRVTITCRASQDVSTAVAWYQQKPGKAPKLLIYSASFLYSGVPSRFSGSGSGTDFTLTISSLQPEDFATYYCQQYYTTATTFGQGTKVEIK | binds
anti-JAG1.b70 mIgG2a, PGLALA (P329G, L234A, L235A) (antibody, V domains shown, variable heavy domain as in the heavy chain of m1; constant domains of the mouse IgG2a heavy chain with PGLALA in the CH2 domain; variable light domain as in the light chain of m1; constant domain of the murine kappa light chain; also called PGLALA-engineered anti-JAG1; effector-negative anti-JAG1; source: HEK293E, transient co-transfection, purified (anti-murine kLC CaptureSelect, SEC)) VH: EVQLVESGGGLVQPGGSLRLSCAASGFTFSNYGIHWVRQAPGKGLEWVGWITPDGGYTDYADSVKGRFTISADTSKNTAYLQMNSLRAEDTAVYYCARAGTLFAYWGQGTLVTVSS VL: DIQMTQSPSSLSASVGDRVTITCRASQDVSTAVAWYQQKPGKAPKLLIYSASFLYSGVPSRFSGSGSGTDFTLTISSLQPEDFATYYCQQYYTTATTFGQGTKVEIK | binds
